Square brackets hold non-standard residues; d marks the D form. Peptide text beside a SMILES is read from it. * marks the point of attachment. X3 = O=C(CCCCCNCc1nc2c(sc3cc(Br)cnc32)c(=O)[nH]1)*
What was measured:
Test in all cases: Kinase profiling (radiometric filter-binding)
Type in all cases: biochemical
[1] = target: EPH-A4 (Homo sapiens, UniProt P54764); conditions: EPH-A4, 1 µM inhibitor; read-out: Residual activity, %
Protocol: (§1) Kinase selectivity profiling was performed using the commercial service provided by the MRC PPU International Centre for Kinase Profiling (Dundee, UK) using a radiometric filter-binding assay. Kinases used for analysis were of human origin. The ATP concentration applied for inhibition measurements was at or below the ATP KM value of the particular PK. ARC-3125 and ARC-3126 were screened against 139 PKs, whereas compounds 1, 2, and 8 were screened against 140 PKs. The final total concentration of inhibitors in the selectivity panel was 1 µM. Residual activities were expressed as the percentage of retained activity compared to the control without inhibitor.

[2] = target: RIPK2 (Homo sapiens, UniProt O43353); conditions: RIPK2, 1 µM inhibitor; read-out: Residual activity, %
Chain of RIPK2 (O43353 whole entry): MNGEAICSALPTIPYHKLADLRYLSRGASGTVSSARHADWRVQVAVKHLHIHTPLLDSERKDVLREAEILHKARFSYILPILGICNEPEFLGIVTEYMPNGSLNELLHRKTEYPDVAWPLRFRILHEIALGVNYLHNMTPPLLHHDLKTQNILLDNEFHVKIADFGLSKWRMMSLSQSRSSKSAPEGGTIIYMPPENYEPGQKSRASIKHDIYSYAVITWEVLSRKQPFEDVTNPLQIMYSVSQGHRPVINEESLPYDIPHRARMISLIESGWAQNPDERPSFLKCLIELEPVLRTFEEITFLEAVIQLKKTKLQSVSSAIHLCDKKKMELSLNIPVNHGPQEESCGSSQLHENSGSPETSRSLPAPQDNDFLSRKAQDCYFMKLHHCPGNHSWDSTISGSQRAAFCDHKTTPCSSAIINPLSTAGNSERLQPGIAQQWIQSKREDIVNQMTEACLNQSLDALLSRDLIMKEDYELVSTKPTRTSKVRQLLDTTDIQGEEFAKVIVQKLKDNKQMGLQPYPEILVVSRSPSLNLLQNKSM
Protocol: as §1

[3] = target: Src (Homo sapiens, UniProt P12931); conditions: 1 µM inhibitor, read-out: Residual activity, %
Chain of Src (P12931 whole entry): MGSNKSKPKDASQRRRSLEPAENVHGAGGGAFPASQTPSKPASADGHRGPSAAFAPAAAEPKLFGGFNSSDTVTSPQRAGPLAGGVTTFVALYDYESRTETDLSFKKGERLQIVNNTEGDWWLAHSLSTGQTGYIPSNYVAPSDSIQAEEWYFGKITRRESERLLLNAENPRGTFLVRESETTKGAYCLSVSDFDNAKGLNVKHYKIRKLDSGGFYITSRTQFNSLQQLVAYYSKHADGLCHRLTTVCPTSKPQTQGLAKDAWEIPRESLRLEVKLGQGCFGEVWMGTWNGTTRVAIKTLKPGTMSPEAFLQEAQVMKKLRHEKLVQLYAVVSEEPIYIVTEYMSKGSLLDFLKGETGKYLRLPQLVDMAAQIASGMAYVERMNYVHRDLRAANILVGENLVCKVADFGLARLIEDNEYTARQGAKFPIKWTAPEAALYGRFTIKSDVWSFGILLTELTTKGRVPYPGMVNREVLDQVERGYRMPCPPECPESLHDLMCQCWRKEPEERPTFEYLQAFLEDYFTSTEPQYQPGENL
Protocol: as §1

[4] = target: T1, ULK2 (Homo sapiens, UniProt Q8IYT8); conditions: ULK2, 1 µM inhibitor; read-out: Residual activity, %
T1 sequence (Q8IYT8 1-1036): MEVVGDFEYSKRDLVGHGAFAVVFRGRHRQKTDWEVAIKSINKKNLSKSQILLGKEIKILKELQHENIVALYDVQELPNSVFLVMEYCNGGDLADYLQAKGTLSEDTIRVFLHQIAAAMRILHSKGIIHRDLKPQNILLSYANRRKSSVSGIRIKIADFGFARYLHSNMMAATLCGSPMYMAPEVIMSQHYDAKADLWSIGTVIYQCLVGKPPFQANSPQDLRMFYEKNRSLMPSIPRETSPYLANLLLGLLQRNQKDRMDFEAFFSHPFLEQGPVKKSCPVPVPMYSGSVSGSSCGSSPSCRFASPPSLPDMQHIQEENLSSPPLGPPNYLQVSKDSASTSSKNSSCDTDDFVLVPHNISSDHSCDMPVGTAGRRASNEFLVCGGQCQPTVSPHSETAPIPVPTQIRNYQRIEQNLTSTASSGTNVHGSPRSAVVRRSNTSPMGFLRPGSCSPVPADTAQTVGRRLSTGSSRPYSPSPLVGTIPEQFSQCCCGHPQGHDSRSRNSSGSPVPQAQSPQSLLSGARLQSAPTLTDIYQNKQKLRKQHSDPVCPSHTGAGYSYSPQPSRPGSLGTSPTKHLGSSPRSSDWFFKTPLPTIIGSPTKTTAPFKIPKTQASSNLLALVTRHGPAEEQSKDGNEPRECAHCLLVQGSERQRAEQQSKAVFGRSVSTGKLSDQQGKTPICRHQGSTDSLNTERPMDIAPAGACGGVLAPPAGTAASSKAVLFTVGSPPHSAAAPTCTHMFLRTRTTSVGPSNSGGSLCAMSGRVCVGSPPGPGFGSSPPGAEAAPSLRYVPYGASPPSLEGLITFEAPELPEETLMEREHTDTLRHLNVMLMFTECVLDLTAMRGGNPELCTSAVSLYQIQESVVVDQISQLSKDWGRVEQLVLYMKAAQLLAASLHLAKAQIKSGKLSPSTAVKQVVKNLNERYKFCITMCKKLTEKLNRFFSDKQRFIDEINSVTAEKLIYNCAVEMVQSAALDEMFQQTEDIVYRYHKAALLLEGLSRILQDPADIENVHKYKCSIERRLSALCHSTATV
Protocol: as §1

[5] = target: DAPK1 (Homo sapiens, UniProt P53355); conditions: DAPK1, 1 µM inhibitor; read-out: Residual activity, %
Chain of DAPK1 (P53355 whole entry): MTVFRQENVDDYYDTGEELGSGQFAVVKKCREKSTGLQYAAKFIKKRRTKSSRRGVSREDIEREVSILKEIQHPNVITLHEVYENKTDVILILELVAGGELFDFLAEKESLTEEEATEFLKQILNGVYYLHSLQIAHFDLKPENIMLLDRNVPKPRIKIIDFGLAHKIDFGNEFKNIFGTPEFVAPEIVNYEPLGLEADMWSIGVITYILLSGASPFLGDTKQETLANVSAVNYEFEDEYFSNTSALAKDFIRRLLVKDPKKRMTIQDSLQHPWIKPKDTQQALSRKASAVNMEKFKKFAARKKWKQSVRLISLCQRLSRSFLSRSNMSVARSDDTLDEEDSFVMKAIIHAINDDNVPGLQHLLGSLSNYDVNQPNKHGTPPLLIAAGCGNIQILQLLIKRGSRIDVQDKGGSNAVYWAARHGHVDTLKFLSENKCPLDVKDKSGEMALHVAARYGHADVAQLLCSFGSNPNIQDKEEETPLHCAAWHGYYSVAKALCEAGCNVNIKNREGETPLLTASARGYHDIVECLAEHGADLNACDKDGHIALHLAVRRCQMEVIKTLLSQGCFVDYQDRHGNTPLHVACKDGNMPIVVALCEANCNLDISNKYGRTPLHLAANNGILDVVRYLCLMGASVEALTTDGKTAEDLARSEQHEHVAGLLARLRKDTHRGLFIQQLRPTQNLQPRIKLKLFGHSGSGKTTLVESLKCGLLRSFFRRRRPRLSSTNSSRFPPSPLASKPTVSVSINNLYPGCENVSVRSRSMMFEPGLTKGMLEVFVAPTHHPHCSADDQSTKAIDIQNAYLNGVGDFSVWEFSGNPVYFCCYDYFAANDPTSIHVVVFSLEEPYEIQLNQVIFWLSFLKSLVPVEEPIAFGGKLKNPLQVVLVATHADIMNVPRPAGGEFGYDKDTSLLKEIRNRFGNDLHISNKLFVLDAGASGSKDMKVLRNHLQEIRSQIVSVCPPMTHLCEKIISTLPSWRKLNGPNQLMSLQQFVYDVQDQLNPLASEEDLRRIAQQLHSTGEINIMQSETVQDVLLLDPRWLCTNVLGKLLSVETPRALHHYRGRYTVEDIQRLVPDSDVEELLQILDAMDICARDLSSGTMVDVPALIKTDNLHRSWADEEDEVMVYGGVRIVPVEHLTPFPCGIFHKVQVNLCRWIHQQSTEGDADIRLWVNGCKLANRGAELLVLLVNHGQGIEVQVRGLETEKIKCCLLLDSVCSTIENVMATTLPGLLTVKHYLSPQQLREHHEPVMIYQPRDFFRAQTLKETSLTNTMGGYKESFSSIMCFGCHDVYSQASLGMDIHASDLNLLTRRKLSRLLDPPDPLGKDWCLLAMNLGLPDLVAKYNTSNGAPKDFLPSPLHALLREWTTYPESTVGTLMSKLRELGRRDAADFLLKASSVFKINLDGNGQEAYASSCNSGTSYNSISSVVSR
Protocol: as §1

[6] = target: CK2 (Homo sapiens, UniProt P68400); conditions: CK2, 1 µM inhibitor; read-out: Residual activity, %
Chain of CK2 (P68400 whole entry): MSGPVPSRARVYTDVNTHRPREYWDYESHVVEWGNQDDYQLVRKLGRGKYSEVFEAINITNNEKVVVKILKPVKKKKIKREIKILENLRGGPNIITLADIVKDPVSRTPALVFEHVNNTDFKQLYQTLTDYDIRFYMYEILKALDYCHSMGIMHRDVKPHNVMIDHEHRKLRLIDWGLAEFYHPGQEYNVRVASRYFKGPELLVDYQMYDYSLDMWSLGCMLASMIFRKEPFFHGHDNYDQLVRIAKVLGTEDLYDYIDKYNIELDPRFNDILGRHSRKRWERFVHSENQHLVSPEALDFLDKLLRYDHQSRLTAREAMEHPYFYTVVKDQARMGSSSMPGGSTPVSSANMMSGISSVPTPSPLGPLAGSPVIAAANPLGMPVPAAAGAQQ
Protocol: as §1

[7] = target: ROCK 2 (Homo sapiens, UniProt O75116); conditions: ROCK 2, 1 µM inhibitor; read-out: Residual activity, %
Protocol: as §1

[8] = target: PIM1 (Homo sapiens, UniProt P11309); conditions: PIM1, 1 µM inhibitor; for remaining activity at 1 µM: read-out: Residual activity, %
Chain of PIM1 (P11309 whole entry): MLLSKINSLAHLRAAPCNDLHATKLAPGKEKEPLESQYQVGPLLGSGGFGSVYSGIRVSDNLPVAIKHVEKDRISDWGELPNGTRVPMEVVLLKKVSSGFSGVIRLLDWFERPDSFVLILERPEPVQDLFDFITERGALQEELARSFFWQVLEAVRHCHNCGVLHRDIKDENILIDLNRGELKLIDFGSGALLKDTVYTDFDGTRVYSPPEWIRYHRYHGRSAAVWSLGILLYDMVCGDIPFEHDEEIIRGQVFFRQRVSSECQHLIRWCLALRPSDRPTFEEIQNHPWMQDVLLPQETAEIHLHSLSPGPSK
Protocol: as §1

[9] = target: T2, PKD1 (Homo sapiens, UniProt Q15139); conditions: PKD1, 1 µM inhibitor; read-out: Residual activity, %
T2 sequence (Q15139 1-912): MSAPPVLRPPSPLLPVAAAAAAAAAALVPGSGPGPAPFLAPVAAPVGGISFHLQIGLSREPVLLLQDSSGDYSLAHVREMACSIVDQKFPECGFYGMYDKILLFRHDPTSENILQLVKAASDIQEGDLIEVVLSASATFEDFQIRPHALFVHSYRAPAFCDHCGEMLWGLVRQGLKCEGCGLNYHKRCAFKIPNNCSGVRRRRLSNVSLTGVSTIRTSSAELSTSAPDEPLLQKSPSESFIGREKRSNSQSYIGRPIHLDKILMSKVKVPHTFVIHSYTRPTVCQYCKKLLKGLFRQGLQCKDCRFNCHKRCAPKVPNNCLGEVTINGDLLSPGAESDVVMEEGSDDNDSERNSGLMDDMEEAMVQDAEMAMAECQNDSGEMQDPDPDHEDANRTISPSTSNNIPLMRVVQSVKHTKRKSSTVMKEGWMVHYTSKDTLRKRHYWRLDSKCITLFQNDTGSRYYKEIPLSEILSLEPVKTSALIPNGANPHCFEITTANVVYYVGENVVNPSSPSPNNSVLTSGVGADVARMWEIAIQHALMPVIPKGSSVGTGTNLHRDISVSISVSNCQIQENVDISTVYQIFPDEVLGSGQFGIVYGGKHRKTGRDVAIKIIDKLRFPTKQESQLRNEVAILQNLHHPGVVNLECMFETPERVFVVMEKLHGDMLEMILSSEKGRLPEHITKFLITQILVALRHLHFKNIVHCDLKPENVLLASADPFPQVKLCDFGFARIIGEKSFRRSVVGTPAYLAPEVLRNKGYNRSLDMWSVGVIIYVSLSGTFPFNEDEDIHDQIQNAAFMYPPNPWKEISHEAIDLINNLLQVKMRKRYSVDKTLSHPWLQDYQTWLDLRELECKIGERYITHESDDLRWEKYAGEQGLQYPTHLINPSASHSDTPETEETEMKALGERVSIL
Protocol: as §1

[10] = target: PKB (Homo sapiens, UniProt P31749); conditions: first of two PKB lines (Greek letter lost), 1 µM inhibitor, read-out: Residual activity, %
Chain of PKB (P31749 whole entry): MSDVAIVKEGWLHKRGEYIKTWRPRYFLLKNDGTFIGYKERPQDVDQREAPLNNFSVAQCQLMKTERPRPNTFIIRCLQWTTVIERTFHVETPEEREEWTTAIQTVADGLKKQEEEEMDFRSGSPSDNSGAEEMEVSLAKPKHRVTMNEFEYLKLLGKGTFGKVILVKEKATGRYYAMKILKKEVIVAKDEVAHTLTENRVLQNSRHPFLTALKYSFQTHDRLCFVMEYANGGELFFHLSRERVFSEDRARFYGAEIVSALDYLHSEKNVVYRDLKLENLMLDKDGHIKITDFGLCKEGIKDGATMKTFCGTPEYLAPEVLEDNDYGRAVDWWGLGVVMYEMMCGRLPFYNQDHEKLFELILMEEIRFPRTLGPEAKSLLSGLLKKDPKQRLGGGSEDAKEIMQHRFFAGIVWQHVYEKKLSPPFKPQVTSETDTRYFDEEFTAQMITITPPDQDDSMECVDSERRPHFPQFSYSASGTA
Protocol: as §1

[11] = target: HER4 (Homo sapiens, UniProt Q15303); conditions: HER4, 1 µM inhibitor; read-out: Residual activity, %
Protocol: as §1

Chain of EPH-A4 (P54764 20-986): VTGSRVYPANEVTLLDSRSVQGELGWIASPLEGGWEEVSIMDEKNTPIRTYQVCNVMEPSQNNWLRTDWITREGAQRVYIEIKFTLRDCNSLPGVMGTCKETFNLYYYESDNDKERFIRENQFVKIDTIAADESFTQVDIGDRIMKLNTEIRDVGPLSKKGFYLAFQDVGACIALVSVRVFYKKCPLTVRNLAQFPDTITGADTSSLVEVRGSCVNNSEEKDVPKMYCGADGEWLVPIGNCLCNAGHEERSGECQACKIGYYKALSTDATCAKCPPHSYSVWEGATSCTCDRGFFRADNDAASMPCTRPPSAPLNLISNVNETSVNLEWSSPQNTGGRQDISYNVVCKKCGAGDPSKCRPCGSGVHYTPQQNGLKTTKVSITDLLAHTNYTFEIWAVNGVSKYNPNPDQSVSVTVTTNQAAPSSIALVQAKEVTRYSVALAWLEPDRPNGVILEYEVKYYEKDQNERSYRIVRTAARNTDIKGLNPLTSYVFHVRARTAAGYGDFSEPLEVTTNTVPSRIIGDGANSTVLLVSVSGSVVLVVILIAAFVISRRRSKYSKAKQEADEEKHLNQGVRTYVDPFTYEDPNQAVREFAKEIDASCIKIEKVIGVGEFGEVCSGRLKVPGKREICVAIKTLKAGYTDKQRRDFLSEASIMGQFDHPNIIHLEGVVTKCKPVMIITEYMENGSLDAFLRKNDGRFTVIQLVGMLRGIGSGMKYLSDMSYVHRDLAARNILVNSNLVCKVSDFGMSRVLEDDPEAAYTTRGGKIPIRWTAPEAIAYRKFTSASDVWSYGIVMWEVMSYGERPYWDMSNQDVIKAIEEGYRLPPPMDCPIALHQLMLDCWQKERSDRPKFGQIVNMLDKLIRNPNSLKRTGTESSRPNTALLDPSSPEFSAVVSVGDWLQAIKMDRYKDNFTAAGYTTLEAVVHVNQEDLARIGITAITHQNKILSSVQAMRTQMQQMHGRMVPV

Compound | remaining activity at 1 µM [1] [%] | remaining activity at 1 µM [2] [%] | remaining activity at 1 µM [3] [%] | remaining activity at 1 µM [4] [%] | remaining activity at 1 µM [5] [%] | remaining activity at 1 µM [6] [%] | remaining activity at 1 µM [7] [%] | remaining activity at 1 µM [8] [%] | remaining activity at 1 µM [9] [%] | remaining activity at 1 µM [10] [%] | remaining activity at 1 µM [11] [%] | Residual activity, % [8]
N=C(N)NCCC[C@@H](NC(=O)CNC(=O)[C@@H](CCCNC(=N)N)NC(=O)[C@@H](CCCNC(=N)N)NC(=O)CCCCCCCNCc1nc2c(sc3cc(Br)cnc32)c(=O)[nH]1)C(=O)N[C@H](CCCCN)C(N)=O [Compound 1, BPTP-Aoc-(D-Arg)2-Gly-D-Arg-D-Lys-NH2] | 97 ± 2 | 62 ± 7 | 97 ± 3 | 115 ± 5 | 85 ± 3 | 77 ± 9 | 114 ± 17 | 9 | 128 ± 13 | 101 ± 6 | 111 ± 13 | –
N=C(N)NCCC[C@@H](NC(=O)CCCCCNCc1nc2c(sc3cc(Br)cnc32)c(=O)[nH]1)C(=O)N[C@H](CCCNC(=N)N)C(=O)N[C@H](CCCNC(=N)N)C(=O)N[C@H](CCCNC(=N)N)C(=O)N[C@H](CCCNC(=N)N)C(=O)N[C@H](CCCNC(=N)N)C(=O)N[C@H](CCCCN)C(N)=O [ARC-3126, BPTP-Ahx-(D-Arg)6-D-Lys-NH2] (X3-[dR][dR][dR][dR][dR][dR][dK]-NH2) | 107 ± 13 | 99 ± 6 | 103 ± 2 | 104 ± 9 | 49 ± 18 | 8 ± 3 | 65 ± 17 | 0 | 111 ± 10 | 80 ± 4 | 110 ± 5 | zero
N=C(N)NCCC[C@@H](NC(=O)CCCCCNC(=O)Cn1cnc2c(I)c(I)c(I)c(I)c21)C(=O)N[C@H](CCCNC(=N)N)C(=O)N[C@H](CCCNC(=N)N)C(=O)N[C@H](CCCNC(=N)N)C(=O)N[C@H](CCCNC(=N)N)C(=O)N[C@H](CCCNC(=N)N)C(=O)N[C@H](CCCCN)C(N)=O [ARC-3125, TIBI-CH2-C(=O)-Ahx-(D-Arg)6-D-Lys-NH2] | 97 ± 4 | 37 ± 6 | 153 ± 22 | 34 ± 3 | 18 ± 1 | 30 ± 2 | 5 ± 1 | 0 | 18 ± 4 | -1 ± 1 | 120 ± 9 | –
N=C(N)NCCC[C@@H](NC(=O)CNC(=O)[C@@H](CCCNC(=N)N)NC(=O)[C@@H](CCCNC(=N)N)NC(=O)CCCCCCCNCc1nc2c(sc3ccc(Br)cc32)c(=O)[nH]1)C(=O)N[C@H](CCCCN)C(N)=O [Compound 2, BBTP-Aoc-(D-Arg)2-Gly-D-Arg-D-Lys-NH2] | 103 ± 16 | 72 | 110 ± 12 | 127 ± 9 | 60 ± 11 | 63 ± 12 | 61 ± 5 | 5 ± 3 | 134 ± 14 | 67 ± 7 | 114 ± 15 | –
N=C(N)NCCC[C@@H](NC(=O)CNC(=O)[C@@H](CCCNC(=N)N)NC(=O)[C@@H](CCCNC(=N)N)NC(=O)Cn1cc(CNCc2nc3c(sc4ccc(Br)cc43)c(=O)[nH]2)nn1)C(=O)N[C@H](CCCCN)C(N)=O [Compound 3, BBTP-Amt-(D-Arg)2-Gly-D-Arg-D-Lys-NH2] | 95 ± 5 | 71 ± 8 | 119 ± 1 | 104 ± 11 | 88 ± 3 | 57 ± 7 | 62 ± 5 | 5 ± 1 | 82 ± 3 | 72 ± 12 | 105 ± 8 | –

Source: publication PMC8307404, “Crystal Structure-Guided Design of Bisubstrate Inhibitors and Photoluminescent Probes for Protein Kinases of the PIM Family” (Molecules, 2021)
